We go through one molecule from doi:10.1101/2023.03.23.533937, “From Microstates to Macrostates in the Conformational Dynamics of GroEL: a Single-Molecule FRET Study” (bioRxiv, 2023).

The test concerns the target T1, double-ring GroEL construct with the same labeling positions (255C/428C) (E. coli, UniProt P0A6F5 2-548; P0A6F5 2-548, 255C | 428C, AlexaFluor 488 and AlexaFluor 594 attached at the labeling positions 255 and 428 (cysteines)).
T1 construct: GroEL subunit, E. coli, with cysteines at the labeling sites E255 and D428; unmodified GroEL subunit, E. coli; GroEL has 14 subunits in two heptameric rings; That the remaining subunits are unmodified wild-type GroEL is surmised from 'the same reassembly procedure'; also called double-ring variant; double-ring construct; source: prepared using the same reassembly procedure as the labeled SR1 …
Nature of the test: intramolecular single-molecule FRET of one labeled subunit (conformational read-out); pulsed-interleaved excitation smFRET on diluted, freely diffusing labeled complexes; 1 mM ATP with a stoichiometric excess of GroES relative to GroEL (also with ADP-BeFx in place of ATP); about 22 °C. The note with it: both partners purified.

B1: co-chaperone GroES (natural protein, E. coli)
chain: MNIRPLHDRVIVKRKEVETKSAGGIVLTGSAAAKSTRGEVLAVGNGRILENGEVKPLDVKVGDIVIFNDGYGVKSEKIDNEEVLIMSESDILAIVEA
notes: GroES, co-chaperone of GroEL, E. coli; a heptameric complex; Source and construct of GroES may stand in the supporting information; also called co-chaperonin GroES
For B1, the binding result is given as “binds”.
